± gives the half width of the 95% confidence interval.
Key:
[1] = folding stability dG unfold from chymotrypsin proteolysis; higher = more stable
In short: (§1)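 Designed mini-proteins with no cysteine and under 80 residues were kept only if AlphaFold2 dimer inter-PAE was above 15. In a PA-tagged cDNA display construct, they were digested with trypsin and chymotrypsin and then sequenced. K50 was inferred by Bayesian fitting of counts, and unfolding free energy was derived per protease or combined against a sequence-predicted unfolded-state K50 and a shared folded-state K50.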

[2] = folding stability dG unfold from trypsin proteolysis; higher = more stable
In short: as §1

[3] = folding stability dG unfold (combined trypsin and chymotrypsin); higher = more stable
In short: as §1

| Sequence | folding stability dG unfold [1] [kcal/mol] | folding stability dG unfold [2] [kcal/mol] | folding stability dG unfold [3] [kcal/mol] |
| --- | --- | --- | --- |
| SAGGSSMTTKTINLSLPNGVEELTITITTPPDGTYNATFYFPKTGKKTTHNFTSEEEIEKFIEELIKESAGG [r13_857_JUSTAS] | 4.291 ± 0.036 | 2.97 ± 0.086 | 4.01 ± 0.089 |
| SAGGSSMTVTKLPTNKTVTTRPLPSSSSVTTTTTFDPNSPVATVTTTDTSSDTSTTTTVPLGPGAFSAGGSA [r2_114_JUSTAS] | 0.892 ± 0.06 | 0.783 ± 0.035 | 0.824 ± 0.11 |
| SAGGSSPAARRLAKRIAKLMMKKHPPGEKRTVEIELPDGVEIKATFNNNGNIDDIEIRSPDGEPIISAGGSA [r2_84_TrROS] | 0.482 ± 0.4 | 0.771 ± 0.17 | 0.644 ± 0.36 |
| SAGGSSPPTVEVSFDPASGTLTITTPDGTTTYSVKSVTVTRLPPELTLITITLEDGTVLTFELVVASAGGSA [r2_268_JUSTAS] | 4.65 ± 0.063 | 3.36 ± 0.15 | 4.52 ± 0.13 |
| SAGGSSSASNISTNPTPLPEESVTVTASSDGVITVTITDPNGVPTTYTYNIPSGSIEEAIAEAISSSAGGSA [r2_298_JUSTAS] | 2.06 ± 0.09 | 1.86 ± 0.059 | 1.97 ± 0.094 |
| SAGGSSSLLEGLPGVVEVTVTTSLSVRPLSPEAARANPGQADRTVPLPRTTVTVTVEFPVSPAGILSAGGSA [r2_404_JUSTAS] | 1.15 ± 0.067 | 0.509 ± 0.1 | 0.94 ± 0.15 |
| SAGGSSSSSYTLNYPDKRVNVSVSHPPSGPLNVTITVYDPNGNKTKTITSPVGSLEKAKSLLEKLLSAGGSA [r2_82_JUSTAS] | 1.28 ± 0.062 | 1.63 ± 0.04 | 1.45 ± 0.11 |
| SAGGSSVRISFPNGYTVEITVTEDSATITLRSPTSTETVEFPSSVQVTITGPLNQPVTFDIPSSSESAGGSA [r2_57_TrMRF] | 2.811 ± 0.024 | 2.77 ± 0.077 | 2.8 ± 0.057 |
| SAGGSTTITLPDGRTATVEPDPNGVERYTVPGHPGVYIEKDPSTNKLTVTTVDPSSGSPVTSVIEESAGGSA [r2_477_JUSTAS] | -0.572 ± 0.44 | 0.243 ± 0.043 | 0.0736 ± 0.15 |
| SAGGSVEEIAEELAKQPSYTKVTVTLFVDPDGTARVVITDVENGKTYTVPLPPAATPVGTLTLPVESAGGSA [r2_74_JUSTAS] | 1.68 ± 0.046 | 1.56 ± 0.026 | 1.63 ± 0.083 |
| SAGGSVEELRELARKLAEELGLEVVEVEVEEREDGKVTVTVTIKGPPKVEIKLEVTENEVKITEIKPSAGGS [r8_432_TrROS_Hall] | 3.35 ± 0.26 | 3.36 ± 0.25 | 3.42 ± 0.23 |
| SAGGSVKIKIKVPKDNPEAKKLAEKLRKLPGVKEVKVKKVKEINGYLVLEIEVEVSPEVKEKLKELLSAGGS [r16_394_TrROS_Hall] | 2.75 ± 0.18 | 2.71 ± 0.25 | 2.97 ± 0.34 |
| SAGGSVKVELKGDYLVITIPVEVPGDKDKPALLTIVIDLSPNGKPARIEMRSLETGKPLGEFTIDLSAGGSA [r2_412_TrMRF] | 2.63 ± 0.04 | 2.14 ± 0.099 | 2.43 ± 0.07 |
| SAGGSVRLELEGVNPETGERYRLEFELPPVPLPPVLVVPLEDLELLRRLGIPEDAAVFPELGLVVVASAGGS [r16_194_TrMRF] | 2.76 ± 0.051 | 2.29 ± 0.082 | 2.66 ± 0.12 |
| SAGGSVSDIVNELKKKGIKVTSIEKTEDGTYVITTELPNGVKKEYKYSTSDPKNVAALKAAIPEELVSAGGS [r16_821_JUSTAS] | 1.19 ± 0.072 | 1.44 ± 0.038 | 1.36 ± 0.066 |
| SAGGSVTKEELEKLNVEEVAALLPEDYTVTVVPGTGVVVISAPDRTLTITHDPATGKVTLTSEVEVSAGGSA [r2_470_JUSTAS] | 0.125 ± 0.21 | 1.41 ± 0.1 | 0.797 ± 0.15 |
| SAGGSVVPASEPVTIPDTATGTTLTLPTPAGATITPDPATNTTTVTFTDGDRASSVTFVNGAATSASTASAG [r5_22_JUSTAS] | -0.139 ± 0.21 | -0.53 ± 0.098 | -0.162 ± 0.11 |
| SAGGSWIEFMIMVPYPDGKPLEDLPPEEVVDIAKTFMSDFGYKIKDINVQYNPDDGYVHVPIEIKPSAGGSA [r2_237_TrROS] | 1.09 ± 0.2 | 1.26 ± 0.074 | 1.21 ± 0.2 |
| SAGGSYRVETTKTEVSEATAPDGTAYRVTTTTTVVTYPDGTRRTVTNVTITDPATGVPTSSTATTTAVSAGG [r13_133_JUSTAS] | 2.056 ± 0.017 | 2.45 ± 0.048 | 2.25 ± 0.03 |
| SAGGTAEEIAEKVRDIFQDNGYPIEVEPRRWDPNNYVTWRMRMPGWSIEIQWDPDDLEVEIEIEPMPSAGGS [r8_157_TrROS] | 3.71 ± 0.11 | 2.47 ± 0.073 | 3.24 ± 0.2 |
| SAGGTAEEIAETIAEKFSKKNNNPNVRITVEKEPDSLRIDITFPNNGHEIEIEFEDGGIRKIEWEPYSAGGS [r16_397_TrROS] | -0.251 ± 0.85 | 0.276 ± 0.27 | -0.269 ± 0.94 |
| SAGGTAEELAKNIADNLQKAGWIKKVEVEVHPSPDGNIMVRIEIKIEPPPPPPPPKVEYDENGKPRYDSAGG [r13_957_TrROS] | 0.662 ± 0.23 | 1.04 ± 0.12 | 0.924 ± 0.39 |
| SAGGTIEITFMVRTPEEAEDMADMIARMLAREHGMKVTIDDVEVHEYKDPEDGQEYYMVEFRIEIKPSAGGS [r8_171_TrROS] | 4.146 ± 0.04 | 3.23 ± 0.081 | 3.88 ± 0.11 |
| SAGGTIMIPFDTPEQAKDIREAAKDGEPIEIRPPDGKPIKFKIKDVEVDPNSGWLVIKIPNGRTIPISAGGS [r16_254_TrROS] | 0.151 ± 0.15 | -0.179 ± 0.19 | 0.0332 ± 0.097 |
| SAGGTMIELKSASGKTALLPLPPGTERVEREGDKWTIYLPPEYTLTVEITAPVPPSSLFDLKVLSRKLSAGG [r19_274_JUSTAS] | 0.509 ± 0.35 | 0.595 ± 0.077 | 0.734 ± 0.31 |
| SAGGTSYLVRLELYETSTGEPLELELPFPNLPAEEVEELAKELAKALAEPTGNDLKARVEVVPLPDESAGGS [r8_185_TrMRF] | 0.717 ± 0.054 | 0.0944 ± 0.031 | 0.53 ± 0.052 |
| SAGGVDPSKLTPLSTREVPVDDRRLLVTTYLTPDGKPLYTVTVLDAEGRPLGSELVPPEKVSADGRLESAGG [r13_447_JUSTAS] | 0.506 ± 0.11 | -0.0975 ± 0.1 | 0.334 ± 0.066 |
